Reference: patent US20230159619A1, “COMPOSITIONS AND METHODS FOR REGULATING IMMUNE SYSTEM ACTIVITY” (Olema Pharmaceuticals, Inc., priority 2017, published 2023)

Tests used:
Format in all cases: cell-based, human
NFAT-Luciferase reporter [1] = assay: NFAT-Luciferase reporter assay, endoxifen dose response (Example 4); conditions: Jurkat E6.1 cells, anti-TCR antibody clone 305, endoxifen 0.05-1000 nM, 6 hours
Text: To examine whether the concentration of endoxifen affected the level of inhibition of T cell activity by an endoxifen-responsive dominant negative Zap-70 polypeptide, Jurkat E6.1 cells (purchased from ATCC (Manassas, Va.)) were transiently transfected with an NFAT-Luciferase reporter construct and a test construct of (1) a vector encoding a dominant negative Zap70 moiety, as described in Example 2 (“Zap70dnm”), or (2) a vector encoding an endoxifen-responsive dominant negative Zap70 polypeptide, including an ER(T2) domain operatively linked to a dominant negative Zap70 moiety, as described in Example 1 (“Zap70dnm-ER(T2)”). The transient transfections were performed using LTX and PLUS transfection reagent (ThermoFisher Scientific) according to manufacturer's protocols.
Transfected cells were treated with an anti-TCR antibody, clone 305, which stimulated T cell activity. […]
After 6 hours, luciferase activity was assayed with Bright-Glo substrate according to manufacturer's protocols (Promega). Luminescence was detected on the Varioskan Lux (ThermoFisher Scientific) plate reader at a 1 second interval. The luminescence was measured and reported in relative light units (RLU). […]

NFAT-Luciferase reporter [2] = assay: NFAT-Luciferase reporter assay in transiently transfected Jurkat E6.1 cells (Example 3)
Text: One outcome of T cell activation is the expression of Nuclear Factor of Activated T cells (NFAT) transcription factors. Accordingly, a construct containing a reporter gene, such as firefly luciferase (Luc), under the control of an NFAT response element can be used to assess T cell activity. Such a construct can either be transiently transfected into cells (e.g., Jurkat cells, which are an immortalized line of human T cells) or stably integrated into a cell line (e.g., a derivative Jurkat cell line). These reporter genes can be used to measure activation, or inhibition, of T cell activation pathways.
To examine whether an endoxifen-responsive dominant negative Zap-70 polypeptide could inhibit T cell activity resulting in NFAT-luciferase expression, Jurkat E6.1 cells (purchased from ATCC (Manassas, Va.)) were transiently transfected with an NFAT-Luciferase reporter construct and a test construct of (1) a control vector (“vector”), (2) a vector encoding a dominant negative Zap70 moiety, as described in Example 2 (“Zap70dnm”), or (3) a vector encoding an endoxifen-responsive dominant negative Zap70 polypeptide, including an ER(T2) domain operatively linked to a dominant negative Zap70 moiety, as described in Example 1 (“Zap70dnm-ER(T2)”). The transient transfections were performed using LTX and PLUS transfection reagent (ThermoFisher Scientific) according to manufacturer's protocols.
Transfected cells were treated in the absence or presence of 1:30 Immunocult™ CD3/CD28/CD2 tetrameric antibody mixture (StemCell Technologies, Canada) (“α-TCR”), which stimulates T cell activity. […]
After 19 hours, luciferase activity was assayed with Bright-Glo substrate according to manufacturer's protocols (Promega). Luminescence was detected on the Varioskan Lux (ThermoFisher Scientific) plate reader at a 1 second interval. The luminescence was measured and reported in relative light units (RLU). […]

NFAT-Luciferase reporter [3] = assay: NFAT-Luciferase reporter assay with ZAP70dn(1-278) constructs (Example 10); conditions: Jurkat E6.1 cells, αTCR+αCD28, with or without endoxifen, compared to empty vector controls
Text: (§1) To provide a means for assessing immune pathway activity, a construct containing a reporter gene, such as firefly luciferase (Luc), under the control of an NFAT response element can be used, as described, e.g., in Example 3. In the present Example, Jurkat E6.1 cells were transiently transfected with an NFAT-Luciferase reporter construct as well as one of (a) empty vector; (b) an expression construct encoding ZAP70dn(1-278); (c) an expression construct encoding ZAP70dn(1-278)-ER(T2); and (d) an expression construct encoding ZAP70dn(1-278)-ER(T12). Transient transfections were performed using LTX and PLUS transfection reagent (ThermoFisher Scientific) according to manufacturer's protocols.
A first set of transfected cells was treated in the absence or presence of 1:30 dilution of Immunocult CD3/CD28/CD2 tetrameric antibody mixture (StemCell Technologies, Canada), which stimulated T-cell activity. […] Luciferase activity (luminescence) was measured and reported as a percentage induction of NFAT-Luciferase.
A further set of transfected cells was treated in the absence or presence of 0.25 μg/ml C305 (αTCR, Sigma-Aldrich) plus 2 μg/ml αCD28.2 (Biolegend), which stimulated T-cell activity. […] Luciferase activity (luminescence) was measured and reported in relative light units (RLU).

NFAT-Luciferase reporter [4] = assay: NFAT-Luciferase reporter assay with LCK(1-266) constructs (Example 11); conditions: Jurkat E6.1 cells, α-CD3 and α-CD28, with or without endoxifen, compared to empty vector controls
Text: as §1, with “assessing T cell” for “assessing immune pathway”, “reporter construct,” for “reporter construct”, “empty vector control;” for “empty vector;”, “encoding LCK(1-266); and” for “encoding ZAP70dn(1-278);”, “encoding LCK(1-266)-ER(T12).” for “encoding ZAP70dn(1-278)-ER(T2); and (d) an expression construct encoding ZAP70dn(1-278)-ER(T12).”
Transfected cells were treated in the absence or presence of 1:80 dilution of Immunocult CD3/CD28 tetrameric antibody mixture (StemCell Technologies, Canada), which stimulated T-cell activity. Stimulated cells were then further treated with RPMI 1640 media plus 4.8% FBS stripped with charcoal dextran (ThermoFisher Scientific), either without Z-endoxifen or with 100 nM Z-endoxifen (Axon-Medchem). Luciferase activity (luminescence) was measured and reported as percent induction of NFAT-Luciferase.

B1: Zap70dnm: polypeptide including a nuclear export signal and a dominant negative Zap-70 moiety, SEQ ID NO: 10 (protein)
chain: MNELALKLAGLDINKTMPDPAAHLPFFYGSISRAEAEEHLKLAGMADGLFLLRQCLRSLGGYVLSLVHDVRFHHFPIERQLNGTYAIAGGKAHCGPAELCEFYSRDPDGLPCNLRKPCNRPSGLEPQPGVFDCLRDAMVRDYVRQTWKLEGEALEQAIISQAPQVEKLIATTAHERMPWYHSSLTREEAERKLYSGAQTDGKFLLRPRKEQGTYALSLIYGKTVYHYLISQDKAGKYCIPEGTKFDTLWQLVEYLKLKADGLIYCLKEACPNSSASNASGAAAPTLPAHPSTLT
NFAT-Luciferase reporter [1]
  luciferase expression from the NFAT-luciferase construct: low
NFAT-Luciferase reporter [2]; vehicle (not treated with α-TCR or endoxifen)
  luciferase expression from the NFAT-luciferase construct: no luciferase expression was detected
NFAT-Luciferase reporter [2]; α-TCR plus 100 nM endoxifen, 19 hours
  luciferase expression from the NFAT-luciferase construct: low and nearly equivalent to the luciferase expression observed from sample 5
NFAT-Luciferase reporter [2]; α-TCR, no endoxifen, 19 hours
  luciferase expression from the NFAT-luciferase construct: low

B2: ZAP70dn(1-278): dominant negative signaling moiety, ZAP70 amino acids 1-278, lacks a functional kinase domain, SEQ ID NO: 2 (protein)
chain: MPDPAAHLPFFYGSISRAEAEEHLKLAGMADGLFLLRQCLRSLGGYVLSLVHDVRFHHFPIERQLNGTYAIAGGKAHCGPAELCEFYSRDPDGLPCNLRKPCNRPSGLEPQPGVFDCLRDAMVRDYVRQTWKLEGEALEQAIISQAPQVEKLIATTAHERMPWYHSSLTREEAERKLYSGAQTDGKFLLRPRKEQGTYALSLIYGKTVYHYLISQDKAGKYCIPEGTKFDTLWQLVEYLKLKADGLIYCLKEACPNSSASNASGAAAPTLPAHPSTLT
NFAT-Luciferase reporter [3]
  luciferase reporter expression (RLU): substantially reduced expression of luciferase reporter

B3: LCK(1-266): dominant negative LCK signaling moiety, SEQ ID NO: 17 (protein)
chain: MGCGCSSHPEDDWMENIDVCENCHYPIVPLDGKGTLLIRNGSEVRDPLVTYEGSNPPASPLQDNLVIALHSYEPSHDGDLGFEKGEQLRILEQSGEWWKAQSLTTGQEGFIPFNFVAKANSLEPEPWFFKNLSRKDAERQLLAPGNTHGSFLIRESESTAGSFSLSVRDFDQNQGEVVKHYKIRNLDNGGFYISPRITFPGLHELVRHYTNASDGLCTRLSRPCQTQKPQKPWWEDEWEVPRETLKLVERLGAGQFGEVWMGYYNG
NFAT-Luciferase reporter [4]
  luciferase reporter expression (percent induction of NFAT-Luciferase): substantially reduced expression of luciferase reporter
